Biological target: chimeric avidin mutant A/A2-B I109K
Assay: SDS-PAGE stability assay; 55 µM acetylated protein in pH 7 buffer, with or without biotin-5-fluorescein, 20 min at 20-100°C, sample buffer without SDS, 15% gel; control boiled with 2% SDS and 0.5% β-mercaptoethanol

stoichiometry N: 4
Substance: chimeric avidin mutant A/A2-B I109K

Source: paper PMC3954883
